In the DeepSol protein solubility set:

test: soluble on expression in E. coli; label from the status in PepcDB or PDB records

**Q.** Which “soluble on expression in E. coli” value does the source give for “MSAALEKPQIIAHIQKSLNYTVFESKWIPCSAKFVCMGNFARGTGVMQIYEIQHGELQLVREIEKSKPIKCGTFGATSLQQRHLATGDFDGNLNVWNLEVPDSPVYSVKAHKEIINAIDGVGGLGIGDGAPEIVTGSRDGTVKVWDSRQKDTPVVNMEPTEGETKRDCWTVAFGHAFNDQDRCVCAGYDNGDIKLFDLRNMSLRWEKNIRNGVCSVEFDRKDINMNKLVATSLEGKFHVFDMRTQHPSKGFASVSEKAHKSTIWQVRHLPQNRDVFMTAGGAGNLHLWKYEYPAQRSKKGADDVEMGVAGSVNLLQNVTLSTQPISSLDWSPDKQGLCVCSSFDQSVRVLIVTKLNTV” here?
**A.** Its value is “soluble”.

**Q.** With “MGNQRHHYNDYEDVRMLKWVARNDKSLGPFGIITWQLYVEAYNCPYSVQSLCGRMRRQIVPNIDYYSRHLKSSDLISLERRFGSRLGAETRKYIRNLAVKTVKIVQVVASRPVEKNSEIEVQKVASLELQAAPTAPTTSAAQLGKTKSPGARTQRIERNDELSRDVFESSCASTIVEPEPPQEEPPQRSHNWKTEMRKIAGQAAQAINDLIRQTVENNDFNKKMFAELENQQNLDHLYGKMFDDPNKADWIMIDVKKFTENHLRMQYFRKIREELHKRFTNQHIIRAVFCFFQFFEYYVTVCVDESTDNYILLMNKVLEMSIKLLPLYIVHC” as the sequence, how does the “soluble on expression in E. coli” value read?
**A.** Its value is “not soluble”.

**Q.** Which “soluble on expression in E. coli” value does the source give for “MGTKLPRKLEQKMQIVGEQIKLARLRRNLSIAQIAERATCSPLTVGRIEKGSPTVAIGIYARVLYALQLEDDLLHLAGADELGRRLQDLSLINRRRASKKG” here?
**A.** The value was “not soluble”.

**Q.** For “MSLDSRPAVLEISASIIDISENALEQLGVDWRLHNSRFDLQTGNGTNTMLNNPGSLDSVATTAGAAAAIAATPAGGVLSAVIGGGSRYLMARISALQQTDQARITANPKVATLDNTEAVMDNRQNFYVPVAGYQSADLYAISAGVSLRVLPMVVMDGGTVRIRMNVHIEDGQITSQQVGNLPITSQSEIDTQALINEGDSLLIAGYSVEQQSKSVDAVPGLSKIPLVGALFRTDQTTGKRFQRMFLVTPRVITPEGHHHHHH”, which “soluble on expression in E. coli” value is on record?
**A.** The value was “soluble”.

**Q.** For “MAHHHHHHMDINNIMEEVQAIKVLPHMMFNASKLKVLSDYVNVAFENNEYYDNDVMLTLLRLFCLYPHCYDKDIIKKILICVLYNINNVDMNMYMSLINSSLYDDNIKSVIYIYELIKNCQYKKLWNCINNNIGNEYNNCDYSYLKNDKNFICNIRKYILNTISISFESIYLKNMSEYLNIQDNTQLEQFLNENKWTIKMINHKGKDEQICYNGNIETVQNKKNINTYFTEDNIGSYITKLNH”, which “soluble on expression in E. coli” value is on record?
**A.** The value was “not soluble”.

**Q.** With “MGSDKIHHHHHHMLRAELHVHSSFSDGRDGVRKILEAAVEKKLEVIAITDHDTVQGSLEAIDIVKEEHLPLKVLPGCEVTASTGHVLVYGITKDIEPRMSVEETCKIARELGGVCFLAHPFDFIRKGSVRLKDFKMVDGIETFNAKSYFNFLAKRYAKKLSKPEIAGSDAHSARAVGLAINYLPDEFDLLNALFHARFDGRRVSIRERLAFLRFRLNQRL” as the sequence, how does the “soluble on expression in E. coli” value read?
**A.** Its value is “not soluble”.

**Q.** Which “soluble on expression in E. coli” value does the source give for “MASLLDKAKDFVADKLTAIPKPEGSVTDVDLKDVNRDSVEYLAKVSVTNPYSHSIPICEISFTFHSAGREIGKGKIPDPGSLKAKDMTALDIPVVVSYSILFNLARDVGVDWDIDYELQIGLTIDLPVVGEFTIPISSKGEIKLPTFKDFF” here?
**A.** The value was “soluble”.

**Q.** With “MKQFKRGIERDGTGFVVLMAEEAEDMWHIYNLIRIGDIIKASTIRKVVSETSTGTTSSQRVHTMLTVSVESIDFDPGAQELHLKGRNIEENDIVKLGAYHTIDLEPNRKFTLQKTEWDSIDLERLNLALDPAQAADVAAVVLHEGLANVCLITPAMTLTRAKIDMTIPRKRKGFTSQHEKGLEKFYEAVSTAFMRHVNLQVVKCVIVASRGFVKDAFMQHLIAHADANGKKFTTEQRAKFMLTHSSSGFKHALKEVLETPQVALRLADTKAQGEVKALNQFLELMSTEPDRAFYGFNHVNRANQELAIETLLVADSLFRAQDIETRRKYVRLVESVREQNGKVHIFSSMHVSGEQLAQLTGCAAILRFPMPDLDDEPMDEN” as the sequence, how does the “soluble on expression in E. coli” value read?
**A.** Its value is “not soluble”.

**Q.** Which “soluble on expression in E. coli” value does the source give for “MGSDKIHHHHHHMTVLHSVDFFPSGNASVAIEPRLPQADFPEHHHDFHEIVIVEHGTGIHVFNGQPYTITGGTVCFVRDHDRHLYEHTDNLCLTNVLYRSPDRFQFLAGLNQLLPQELDGQYPSHWRVNHSVLQQVRQLVAQMEQQEGENDLPSTASREILFMQLLLLLRKSSLQENLENSASRLNLLLAWLEDHFADEVNWDAVADQFSLSLRTLHRQLKQQTGLTPQRYLNRLRLMKARHLLRHSEASVTDIAYRCGFSDSNHFSTLFRREFNWSPRDIRQGRDGFLQ” here?
**A.** Its value is “not soluble”.

**Q.** For “MGSDKIHHHHHHMNNLIVTPGYASQFSCIGSACEDSCCHDWTIIFDKKSYKNTLNHPKLASLAKEAFIETKTDANQWAQIKLNANGTCPFVNEQQLCAIHAAAGETALSHTCKTYPRINNVIATTKYESLSLSCPEAARLVLFDANAFQFEAKSGGAKRPTAANPAWLEKTYDYSLDLLINMGVDWQQALMAIGLLVKVSDQVRQNALPIAQIDQRFEQLILLAQTKEITAQYQKIPYTPQPQTHAFVSIHDQLCKLHSRSLKPRFTSLNEAIGLLCNEGNQYQIDHLNKAWEEKALPALSNYQDLFDRYILYSLYHEHFPMIHSQQPWMAFRLLVIDCFMIRCYLSAMAFKNNGLTESDIVLCFQLYSVVRQHKAKFAEGINQTLQECGIDSIPAAISLLKTS”, which “soluble on expression in E. coli” value is on record?
**A.** Its value is “not soluble”.

**Q.** Which “soluble on expression in E. coli” value does the source give for “MRGPLLPPTVPGWRSRAERFDMAVLEAYEPIERRWQERVSQLDIAVDEIPRIAAKDPESVQWPPEVIADGPIALARLIPAGVDVRGNATRARIVLFRKPIERRAKDTEELGELLHEILVAQVAIYLDVDPSVIDPTIDD” here?
**A.** Its value is “soluble”.

**Q.** For “SLPSINALLQAEVLSRQITSPVSGINGDIRAKKIASIADVCESMKEQLLVLVEWAKYIPAFCELPLDDQVALLRAHAGEHLLLGATKRSMVFKDVLLLGNDYIVPRHCPELAEMSRVSIRILDELVLPFQELQIDDNEYAYLKAIIFFDPDAKGLSDPGKIKRLRSQVQVSLEDYINDRQYDSRGRFGELLLLLPTLQSITWQMIEQIQFIKLFGMAKIDNLLQEMLLGG”, which “soluble on expression in E. coli” value is on record?
**A.** Its value is “soluble”.

**Q.** With “MTNLTLDVNIIDFPSIPVAMLPHRCSPELLNYSVAKFIMWRKETGLSPVNQSQTFGVAWDAPATTAPEAFRFDICGSVSEPIPDNRYGVSNGELTGGRYAVARHVGELDDISHTIWGIIRHWLPASGEKMRKAPILFHYTNLAEGVTEQRLETDVYVPLA” as the sequence, how does the “soluble on expression in E. coli” value read?
**A.** The value was “not soluble”.

**Q.** With “MDTLFSLKVFRQVVQSGGFTRAADALGISTAMASKHVSHLENTVQAKLLHRNSRNLSLTEAGEEYYRQCSYALDTLDDAAQKAAGGTEKPQGLLRVTMPLWFAGSQICNWLAEYRERYPEVALELILDNRHVDLIAEGVDLALRVSQTLSPSLIARPLAEIEFALLASPDFLRRNGVPETPEEVAGLPAVLPTYTNQQKLDLTRKSDGKKYRLELTPVIRTDNTLMMREMIKAGACIGYQPLWAAEHDLRCGTLVRLLPGYAVPTDRLNAVYADRAFLSAKVRSFIDFLNEKIASRKGCRNAV” as the sequence, how does the “soluble on expression in E. coli” value read?
**A.** The value was “not soluble”.

**Q.** With “MGSDKIHHHHHHMIKVGQTTEVENFLSNHPEVEAIDVLISDLVGFARGKRIEKSSLEKIYSSGLNMPATIFSMNVLGETIEECGLGQDIGEPDMVCKPIANTLHMASWHDRPIAQVLMSMFNHDGTPFFADPRNILSNVVRQLAEINLYPVVAVELEFYLLDKNKDNKGNLQAPISPKTGKRDEHTQVYSVDTLNDYSALLDDINRVCIEQNVPADTAVAECAPGQFEINLKHEADPVAACDNAILLKRIIKTVADKHNFDATFMAKPYSNEAGSGMHVHASLLDECGNNVFADEHNDYNETLEHAIGGMLELMPASMPLLCPNVNSYRRFMPGYYVAMAKNWGVDNRTVALRLPRGHKNATRIEHRVSGADANPYLVMAVILASIHHGITNKIKPINPTVGNAFDDDCEALPLKLDRALAELEKDQILTSYLGEEFTKNYHTVKQKELEQFDMHISELEVKWYLSNS” as the sequence, how does the “soluble on expression in E. coli” value read?
**A.** Its value is “not soluble”.

**Q.** With “MKRFAFFDVDDTLITVKSMFDFFRYWTLEWRRESAALEAFEREFSQLRAAGESRENLNRAYYRYFAGIRSEDIERAGAAWASAWLAHPERFFIAAPVHLLRELSADGVEPVFVSGSFDAVLRPIADHLSVTNILAAPLELRADGCYTGRIGTPQTIGAGKAVAIRNFLSEQKVRADVCLAVGDDISDLPMLQSVGTAVVVGEHPQLTEIADARSWRRLPAMAE” as the sequence, how does the “soluble on expression in E. coli” value read?
**A.** Its value is “not soluble”.
